Experimental data as given in patent US11994512B2, “Single-cell genomic methods to generate ex vivo cell systems that recapitulate in vivo biology with improved fidelity” (Massachusetts Institute of Technology, priority 2018, dated 2024).

B1: Q3UQ28 (protein, UniProt Q3UQ28 1-1475, looked up)
chain: MAVRPTRRCLLALLLCFAWWAMAVVASKQGAGCPSRCLCFRTTVRCMHLLLEAVPAVAPQTSILDLRFNRIREIQPGAFRRLRSLNTLLLNNNQIKKIPNGAFEDLENLKYLYLYKNEIQSIDRQAFKGLASLEQLYLHFNQIETLDPESFQHLPKLERLFLHNNRITHLVPGTFSQLESMKRLRLDSNALHCDCEILWLADLLKTYAQSGNAQAAATCEYPRRIQGRSVATITPEELNCERPRITSEPQDADVTSGNTVYFTCRAEGNPKPEIIWLRNNNELSMKTDSRLNLLDDGTLMIQNTQEADEGVYQCMAKNVAGEAKTQEVTLRYLGSPARPTFVIQPQNTEVLVGESVTLECSATGHPLPQITWTRGDRTPLPIDPRVNITPSGGLYIQNVAQSDSGEYTCFASNSVDSIHATAFIIVQALPQFTVTPQSRVVIEGQTVDFQCAAKGHPQPVIAWTKGGSQLSVDRRHLVLSSGTLRISGVALHDQGQYECQAVNIIGSQKVVAHLTVQPRVTPVFASIPSDMTVEVGTNVQLPCSSQGEPEPAITWNKDGVQVTESGKFHISPEGFLTINDVGTADAGRYECVARNTIGYASVSMVLSVNVPDVSRNGDPYVATSIVEAIATVDRAINSTRTHLFDSRPRSPNDLLALFRYPRDPYTVGQARAGEIFERTLQLIQEHVQHGLMVDLNGTSYHYNDLVSPQYLSLIANLSGCTAHRRVNNCSDMCFHQKYRTHDGTCNNLQHPMWGASLTAFERLLKAVYENGFNTPRGINSQRQYNGHVLPMPRLVSTTLIGTEVITPDEQFTHMLMQWGQFLDHDLDSTVVALSQARFSDGQHCSSVCSNDPPCFSVMIPPNDPRVRSGARCMFFVRSSPVCGSGMTSLLMNSVYPREQINQLTSYIDASNVYGSTDHEARSIRDLASHRGLLRQGIVQRSGKPLLPFATGPPTECMRDENESPIPCFLAGDHRANEQLGLTSMHTLWFREHNRIAAELLKLNPHWDGDTVYHETRKIVGAEIQHITYRHWLPKILGEVGMKMLGEYRGYDPSVNAGIFNAFATAAFRFGHTLINPLLYRLDENFEPIPQGHVPLHKAFFSPFRIVNEGGIDPLLRGLFGVAGKMRIPSQLLNTELTERLFSMAHTVALDLAAINIQRGRDHGIPPYHDYRVYCNLSAAYTFEDLKNEIKSPVIREKLQRLYGSTLNIDLFPALMVEDLVPGSRLGPTLMCLLSTQFRRLRDGDRLWYENPGVFSPAQLTQLKQTSLARILCDNSDNITRVQQDVFRVAEFPHGYSSCEDIPRVDLRVWQDCCEDCRTRGQFNAFSYHFRGRRSLEFSYEDDKPTKRARWRKALSVKHGKHLSNATSATHEHLEGPATNDLKEFVLEMQKIITDLRKQINSLESRLSTTECVDDSGESHGGNTKWKKDPCTVCECKNGQITCFVEACQPAACPQPVKVEGACCPVCLKNTAEEKP
modifications: full-length
B2: Q3V1V3 (protein, UniProt Q3V1V3 1-845, looked up)
chain: MSSKQEIMDDQRFRRVSKDPRFWEMPEKERKVKIDKRFRAMFHDKKFKLNYAVDKRGRPISHSTTEDLKRFYDLSDSDSDLSDEESKILSQKKAKQKKKQTKKEAKSIEKPIEEKKKETKKTDQKDSINKHDLNNSERVQKMKNSQKPQKIDSEISPKKDNEEFLQNKKKKRGTTDLSVEALPKGKLRTKDSSTSEMVKSSTMSSSKAKREKQSVVPVIMAKDNDGKMPDEDALEEDSDSASELGSDEESEDEIISDGKTSADEDESEEEDEEEEEDSEEEEEEEEEDESDSGPDLARGKGNVETSSEDEDDLADLFPEEPGFEHAWRELDKDAPRADEITRRLAVCNMDWDRLKAKDLLALFNSFKPKGGVVFSVKIYPSEFGKERMKEEQVQGPVELLSIPEDAPEKDWASREKLRDYQFKRLKYYYAVAECDSPETASKIYEDCDGLEFESSCSFIDLRFIPDDITFDDEPKDVALEVDLTAYKPKYFTSAAMGTSTVEITWDETDHERITTLNRKFKKDELLDMDFQAYLASSSEDEEEVEEAPEGEEGVNIGEDGKTKKSQKDDEEQIAKYRQLLQVIQEKEKKGKENDMEMEIKWVPGLKESAEEMVKNKLEGKDKLTPWEQFLEKKKEKKRLKKKQKALAEEDSEDELPSDVDFNDPYFAEEVKKIGIKKKSMKSAKDSASSEEETDLEKQKAEMALLVMDEEEDSKKHFNYDKIVEHQNLSKKKKKQLMKKKELVEDDFEVNVSDARFQAMYTSHLFNLDPSDPNFKKTKAMEKILEEKARHRERKEELLIQAVERAQQDTGKPTQKQPMDPALSMLIKSVKNKTEQFQARKKQRVK
modifications: full-length
B3: Q3UW68 (protein, UniProt Q3UW68 1-665, looked up)
chain: MAHDAETSVVKFKNQDFRTLRDHCLSRGQLFIDDTFPAAASSIGEKLLRGKHLSKLEWKRPTSKDLPFYPPHFILEGASRFDIHQGIAGDCWFLAALGSLTQNPQCLQKILMDQSYSHQYAGIFQFRFWQCGQWVEVVIDDQLPVIGDNFLFVHPRGGNKEFWPCLMEKAYAKLLGSYSQLHYGYLPDALVDLTGGVVTIINLHSSPFDLLTTVKTAIQAGSMVACATENGLTEEAKVMENGLVSQHAYTVTGAEKIQYQGRWEDIIRLWNPWGKTEWKGRWKDGSKEWRETHDPRKSQLYENKEDGEFWMSCQDFQENFSCLFICNQIPITMDHGVTPNESWRQMRFTNQVISRNRAGGHGRDMQYVFSVQEHTAGNNVVVAFTIMPQSLNTEEERFPLQFQVFKVPQFQNVQGRLPPAFFSPFRSAAQGTKYVSKCNFTKSFHLNPGTYVVVTTANGKEVEFLLRIFLKMPDKHRDPSSNFNLRALKESLPENGSRNSISYTYMDQGLDIDATQLQSLLNQEFLTGPPGDTFSLDQCQSIMALMDLKVNGRLDQEEFARLRSRLIHCQHIFQSIQRRPGVLLSSDLWKVIENTDFLVGIFISSELLSLMALRYSDSSGRVSFPTLVCFLIRLETMAKAFRNLSKDGKGIYLTETEWMNLVMYS
modifications: full-length
B4: Q3UR50 (protein, UniProt Q3UR50 1-1248, looked up)
chain: MPGLYCPTSWTPLPLTDSCVRAYAKGPCLSLRARLTYHNPQPQPVEGVFVYPLAEAEVVSGFEAEAAGRRVSFQLHSRRRSQAACCRALGPGLGTSTPRRCAQGHLVLNLAQARSTLVLPTGLVAAAGTMTVTLCSSRELPSRPDGVMHVALPTVFTPLAQPNLPGSPRSPGLCDDSPTSCFGVGSPEEERPTWEQPTATPDVFSGPARCPAPYTFSFEMLVTGPCLLAGLESPSHALRADALPHASSAATIRVTLAEGHQCDRALEILLHPSEPHQPHLMLETGSLSSAEYEAQVRARHDFQRLQQRDSGGERQVWFLQRRFHKDILLNPVLVLNFCPDLSSKPGHLNAATRELLFLLDGSGAGHKDAIVLAVKSLPAQTLVNLAIFGTLVQPLFPESRPCSDDTVQLICESIETLQTVNGPPDMLAVLDWALGQPQHRAYPRQMFLITAASPTAATTHQALEFMRWHRGAARCFSFALAPACRQLLHDLSVLSRGQAYFLRPGERLQPKLVQALRKALEPALSDISVDWFVPDAVEALLTPREIPALYPGDQLLGYCSLFRVDGFRSHALGGQEPGWQSLAGSVFPSPEEVLSATSPGTEPTHTTEPLGTGTVSAELSSPWAVGDSEQSMEALTDPVMDPGPNPSSDTAIWRRIFQSSYIREQYVLTHCSASPEPGPGSTCSSESPGSQGPGSPSGSRPLDPPSQQGCRSLAWVEPAGSRSCPLPVPPPSPFKVGAMSAEVLGRRQRAALAGRSLSSPSGRANPVPGRARHPSLDAIPDGLGPEPGQQLGQGLDDSGNLLSPAPLDWDMLMEPSFLFKPVPSSAESAPPAECLPPQAPRCHVVIRALCGEQPMCWEVGVGLEELWGPGDGSQPESLPMREAAWDQALHRLTAASVVQDNEQLALRGRAETRAEQGRVRRSWLRAIQTSKVSSAPSCFTCPVAVDATTREVLPGALQVWSSDPAELSGMSASQDQLAAAPLSTAVHSKGHQGGCSAGAWDLDLNDNSKSALGEPISPTGDHHGLPHQPPASSRLSLGRHRRLCSSNKGQTHENSNDGSNHDYLPLVRLQEAPGSFRLDEPFCAAVCIPQERLCRASPFAAHRASLSPTSASSPWAFLSPGIGQGDSATASCSQSPSSGSEGPGQVDSGRGSDTEASEGMERQDSSDLRGRTWATAVALAWLEHRCAAAFGEWELTASKADCWLRAQHLPDGLDLTALKAAARGLFLLLRHWDQNLQLHLLCYSPSNV
modifications: full-length
B5: Q3UYK3 (protein, UniProt Q3UYK3 1-1264, looked up)
chain: MWVNPEEVLLANALWITERANPYFILQRRKGHGGDGGGGGGLAGLLVGTLDVVLDSSARVAPYRILYQTPDSLVYWTIACGGSRKEVTEHWEWLEQNLLQTLSIFENENDVTTFVRGKIQGIIAEYNKINDVKEDEDTEKFKEAIVKFHRLFGMPEEEKLVNYYSCSYWKGRVPRQGWMYLSINHLCFSSFLMGREAKLVIRWVDITQLEKNATLLLPDMIKVSTRSSEHFFSVFLNINETFKLMEQLANIAMRQLLDNEGFEQDRSLPKLKKKSPKKVSALKRDLDARAKSERYRALFRLPKDEKLDGHTDCTLWTPFNKMHILGQMFVSTNYICFTSKEENLCSLIIPLREVTIVEKADSCSVLPSPLSISTRNRMTFLFANLKDRDFLVQRISDFLQQTTSRIYSDKEFSGSCNSSDDEVYSRPSSLVSSSPQRSTSSDADGERPFNLNGNSVPTATQTLMTMYRRRSPEEFNPKLAKEFLKEQAWKIHFAEYGQGICMYRTEKTRELVLKGIPESMRGELWLLLSGAINEKATHPGYYEGLVEKSMGKYNLATEEIERDLHRSLPEHPAFQNEMGIAALRRVLTAYAFRNPNIGYCQAMNIVTSVLLLYAKEEEAFWLLVALCERMLPDYYNTRVVGALVDQGVFEELARDYVPQLYDCMQDLGVISTISLSWFLTLFLSVMPFESAVVVVDCFFYEGIKVIFQLALAVLDANVDKLLNCKDDGEAMTVLGRYLDSVTNKDSTLPPIPHLHSLLSDDVGPYPAVDIFRLIGTSYEKFGTIRADLIEQMRFKQRLKVIQTLEDTTKRNVVRTIVTETSFTIDELEELYALFKAEHLTSCYWGGSSNALDRHDPSLPYLEQYRIDFEQFKGMFVLLFPWACGTHSDVLASRLFQLLDENGDSLINFREFVSGLSAACHGDLTEKLKLLYKMHVLPEPSCDQDEPDSAFEATQYFFEDITPECTHVVGLDSRGKQSADDGFVTVSLKQDRGKRANSQENRNYLKLWTAENKSKSKTAKDLPKLNQGQFIELCKTMYNMFSEDPNEQELYHATAAVTSLLLEIGEVGKFFITQPAKEDAVPGPPCGQAIPGMLFPKKGSSQSYVVESTEPLTASLAVDSEEHSLGGQMEDIKLEDSSPRDNGACSSMLISDDDTKDDSSMSSYSVLSAGSHEEDKLHCEDIGEDTVLVRSSQGRATLPRSSSLDRDWAITFEQFLASLLTEPALVRYFDKPVCMMARVTSAKNIRMMGKPLTSASDYEISALSG
modifications: full-length

Tested on: intracellular proteome of ENR+CD and ENR organoids
Assay: LC-MS/MS TMT proteomics of ENR+CD versus ENR organoids
Assay type: cell-based, C57BL/6 mice
Conditions: for Average logFC / M1-1 Log2 Median Normalized / M1-2 Log2 Median Normalized / M2-1 Log2 Median Normalized / M2-2 Log2 Median Normalized: protein abundance, ENR+CD versus ENR organoids; for Average logFC: aggregate of the four sample pairs; for M1-1 Log2 Median Normalized: replicate M1-1; for M1-1 Log2 Median Normalized / M1-2 Log2 Median Normalized / M2-1 Log2 Median Normalized / M2-2 Log2 Median Normalized: log2 ratio; for M1-2 Log2 Median Normalized: replicate M1-2; for M2-1 Log2 Median Normalized: replicate M2-1; for M2-2 Log2 Median Normalized: replicate M2-2; for change: up = enriched in ENR+CD, down = enriched in ENR, FDR<0.05 and log fold change cut-off

Row | Molecule | Average logFC | M1-1 Log2 Median Normalized | M1-2 Log2 Median Normalized | M2-1 Log2 Median Normalized | M2-2 Log2 Median Normalized | change
1 | B1 | 1.294 | 1.157 | 1.486 | 1.3875 | 1.146 | up
2 | B2 | −1.244 | −1.45 | −0.805 | −0.9155 | −1.805 | down
3 | B3 | −1.164 | −1.402 | −1.492 | −1.0855 | −0.676 | down
4 | B4 | 1.46 | 1.678 | 1.171 | 1.6125 | 1.377 | up
5 | B5 | −1.25 | −0.639 | −1.148 | −1.5035 | −1.709 | down
